The source of these data is paper PMC4885069.

Where “and” joins values, the source holds several entries; their conditions need not be identical. Identical values can stand only once. Like-named read-outs stand apart in the source and are kept apart here.

As a reminder, the Kd is a measure of binding affinity in units of concentration.

The target in experiment [1] is synaptotagmin LD (Rattus norvegicus) (UniProt P29101). The experiment can be described thus: ITC. To be noted: cited from earlier work.
Sequence of UniProt P29101 (P29101 1-60): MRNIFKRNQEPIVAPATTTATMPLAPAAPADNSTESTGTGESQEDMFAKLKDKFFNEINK
Experiment [2] addresses GST-hSV2C 455-579 (human synaptic vesicle glycoprotein 2C, luminal domain 4, GST fusion) (UniProt Q496J9). The following applies: 25 °C, PBS (composition not given) at pH 7.3, 150 mM NaCl at pH 5.0.
Sequence of UniProt Q496J9 (Q496J9 whole entry, the tested form may be a part): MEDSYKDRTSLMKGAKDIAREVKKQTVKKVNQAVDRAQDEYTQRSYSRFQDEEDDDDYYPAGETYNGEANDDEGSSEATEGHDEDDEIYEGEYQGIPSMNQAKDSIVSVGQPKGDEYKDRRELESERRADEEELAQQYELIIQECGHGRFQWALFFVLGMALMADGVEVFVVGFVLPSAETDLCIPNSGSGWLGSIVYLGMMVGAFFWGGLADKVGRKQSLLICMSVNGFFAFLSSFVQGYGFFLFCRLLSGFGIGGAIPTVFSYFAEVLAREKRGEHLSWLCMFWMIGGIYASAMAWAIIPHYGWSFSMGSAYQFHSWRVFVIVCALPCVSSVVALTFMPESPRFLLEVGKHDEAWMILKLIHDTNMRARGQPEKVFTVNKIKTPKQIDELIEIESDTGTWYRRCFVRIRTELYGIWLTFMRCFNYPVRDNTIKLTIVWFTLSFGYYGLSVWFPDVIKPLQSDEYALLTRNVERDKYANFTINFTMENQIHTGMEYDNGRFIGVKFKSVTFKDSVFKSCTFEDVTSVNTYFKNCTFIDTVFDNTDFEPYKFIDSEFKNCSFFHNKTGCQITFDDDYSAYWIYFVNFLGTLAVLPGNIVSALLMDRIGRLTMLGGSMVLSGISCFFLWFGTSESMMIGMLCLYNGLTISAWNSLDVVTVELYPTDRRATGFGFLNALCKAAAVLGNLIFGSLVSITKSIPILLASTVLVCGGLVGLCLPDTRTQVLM
Experiment [3] has the same target. The experiment can be described thus: SPR (Biacore X100), kinetic evaluation. The following applies: pH 7.3; 25 °C; PBS (composition not given) at pH 7.3; PBS (pH 7.3). Background: In SPR one partner is held on a chip, and binding of the other changes the refractive index at the surface.

As for BoNT/B (from UniProt P10844), in experiment [1], the Kd was 140 nM and 34 nM.

With “Botulinum neurotoxin serotype A HC fragment (HCA / HCAS), 50 kDa cell-binding domain”, in experiment [2] (pH 5.0), the KD Steady State was above 1200 nM. The substance further returned a KD Steady State in experiment [2] (pH 7.3) of 400 nM. Also, in experiment [3], the KD Kinetics was 390 nM, the ka came out at 310000 M⁻¹ s⁻¹ and the kd came out at 0.12 s⁻¹.
